Among the data in US20120213781A1 are EC50 (read off the curve) values, retold here.

For this assay, the target named is recombinant human angiopoietin-2 (rhAng2) (human) (UniProt O15123). The assay can be described thus: direct ELISA on rhAng2-coated wells, detection by HRP-anti-His tag antibody, OD450. For orientation: An ELISA detects its analyte on a solid surface through an enzyme-linked reagent.

Bridges are numbered along the chain shown (N, C = ends). Where no end group is shown, it is not given here.

Sequence of UniProt O15123 (O15123 19-496 limits assumed): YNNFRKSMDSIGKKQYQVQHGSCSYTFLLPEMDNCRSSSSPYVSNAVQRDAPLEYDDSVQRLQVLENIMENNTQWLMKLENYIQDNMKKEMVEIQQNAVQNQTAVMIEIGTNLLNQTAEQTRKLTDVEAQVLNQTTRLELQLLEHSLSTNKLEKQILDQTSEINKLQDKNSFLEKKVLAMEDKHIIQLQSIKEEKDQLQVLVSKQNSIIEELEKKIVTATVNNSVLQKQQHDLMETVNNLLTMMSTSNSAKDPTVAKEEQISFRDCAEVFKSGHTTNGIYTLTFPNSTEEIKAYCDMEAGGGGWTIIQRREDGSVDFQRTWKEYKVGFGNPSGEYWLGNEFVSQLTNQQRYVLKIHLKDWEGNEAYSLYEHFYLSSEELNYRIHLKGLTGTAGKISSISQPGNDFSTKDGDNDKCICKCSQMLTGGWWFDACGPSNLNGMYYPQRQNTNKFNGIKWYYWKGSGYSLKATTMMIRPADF

B1: Construct 12 (designed binder, not shown: small tags and cut ends)
chain: LWDDCYSFPNPPHCYNSP
modifications: disulfide 5-14 (inferred); not fully specified (N-terminus, C-terminus); also: ELP-MRD fusion, type and number of ELP repeats not given here
In the case of B1, the EC50 (read off the curve) (usually the concentration needed to bring the measured effect to its halfway point) is 9 nM.

B2: Construct 13 (designed binder, not shown: small tags and cut ends)
chain: LWDDCYSFPNPPHCYNSP
modifications: disulfide 5-14 (inferred); not fully specified (N-terminus, C-terminus); also: ELP-MRD fusion, type and number of ELP repeats not given here
With B2, the EC50 (read off the curve) is 9 nM.
